The record followed here is patent US20050129672, “Regulatory sequences that direct gene expression to spinal motor neurons and uses thereof” (published 2005).

One data set has as its target HOXC8 + PBX1 (UniProt P31273;P40424 P31273:1-242,P40424:1-430). Nature of the data set: EMSA; no retarded complex with PBX1. The conditions noted are these: tags: pSG5-derived vectors, reticulocyte lysate; label: DIG. As for the experimental part:
(§1) PBX1 and HOX proteins used in this study were produced in vitro from the corresponding pSG5-derived expression vectors using a T7 polymerase-based coupled transcription-translation reticulocyte lysate system (Promega, Madison, Wis.). EMSA were performed according to the instruction of DIG gel shift kit (Roche). Briefly, 2 μl of double-stranded DIG-labeled oligonucleotides were incubated with 2 μl of in vitro-translated proteins in 20 μl of binding buffer (20 mM Hepes pH 7.6, 1 mM EDTA, 10 mM (NH₄)₂SO_{4, 1} mM DTT, 0.2%(w/v) Tween 20, 30 mM KCl in the presence of 1 μg of poly (dI-dC) and 0.1 μg of poly L-lysine) for 30 min at room temperature. Pre-binding reactions of unlabeled competitor oligonucleotides at ˜100-fold molar excess occurred for 15 minutes at room temperature. The incubation mixture was resolved by electrophoresis and served for chemiluminescent detection according to recommended conditions of DIG gel shift kit (Roche). DIG-labeled DNA probes used were generated by annealing complementary oligonucleotides:
(§2) Next, a representative subset of HOX proteins was tested for cooperative DNA binding with Pbx 1, to both the wild-type and a mutated 40 bp sequence derived from the 125 bp Hb9 enhancer (FIG. 6D). […] No binding was detected with PBX1 alone (lane 1), or with either of the HOX proteins alone. […]

For another data set, the target named is HOXD9 + PBX1 (UniProt P28356;P40424 P28356:1-352,P40424:1-430). Nature of the data set: EMSA; no retarded complex with PBX1. The conditions noted are these: tags: pSG5-derived vectors, reticulocyte lysate; label: DIG. The method, then: as §1, §2
HOXD9 + PBX1, sequence (P28356 whole entry, one chain of several): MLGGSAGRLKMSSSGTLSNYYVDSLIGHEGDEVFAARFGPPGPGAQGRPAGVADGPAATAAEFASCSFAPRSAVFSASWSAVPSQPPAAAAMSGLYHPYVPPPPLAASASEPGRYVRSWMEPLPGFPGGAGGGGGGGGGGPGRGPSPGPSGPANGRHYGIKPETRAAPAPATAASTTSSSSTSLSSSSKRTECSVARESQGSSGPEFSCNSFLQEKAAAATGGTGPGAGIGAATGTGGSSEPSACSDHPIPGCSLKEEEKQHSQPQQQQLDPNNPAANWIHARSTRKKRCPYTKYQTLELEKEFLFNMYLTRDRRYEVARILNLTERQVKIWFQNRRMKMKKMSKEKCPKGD
The target in the next data set is HOXB3 + PBX1 (UniProt P14651;P40424 P14651:1-431,P40424:1-430). In words: EMSA; cooperative complex; 20 mM Hepes pH 7.6, 30 mM KCl, poly(dI-dC), RT. The conditions noted are these: tags: pSG5-derived vectors, reticulocyte lysate; label: DIG. The method, then: as §1, §2
HOXB3 + PBX1, sequence (P14651 whole entry, one chain of several): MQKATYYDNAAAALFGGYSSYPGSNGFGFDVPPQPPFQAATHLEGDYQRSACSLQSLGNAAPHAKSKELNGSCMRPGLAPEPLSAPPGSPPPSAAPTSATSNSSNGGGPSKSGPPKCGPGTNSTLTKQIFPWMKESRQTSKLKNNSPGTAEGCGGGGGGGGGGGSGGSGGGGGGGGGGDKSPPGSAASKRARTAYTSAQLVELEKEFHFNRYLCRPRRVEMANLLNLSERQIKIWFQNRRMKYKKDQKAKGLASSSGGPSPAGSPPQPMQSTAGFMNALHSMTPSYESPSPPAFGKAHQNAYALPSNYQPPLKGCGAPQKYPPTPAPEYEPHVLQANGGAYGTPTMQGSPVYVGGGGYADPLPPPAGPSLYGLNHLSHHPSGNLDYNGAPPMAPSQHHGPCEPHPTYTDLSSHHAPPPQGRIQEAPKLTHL
Background: Mobility shift assays separate free from complexed probe on a gel.

A further data set addresses HOXB1 + PBX1 (UniProt P14653;P40424 P14653:1-301,P40424:1-430). In words: EMSA; cooperative complex; abolished by anti-PBX1 antibody; 20 mM Hepes pH 7.6, 30 mM KCl, poly(dI-dC), RT. As to conditions: tags: pSG5-derived vectors, reticulocyte lysate; label: DIG. As for the experimental part: as §1, §2
The next data set deals with T1, PBX1 (UniProt P40424 P40424:1-430).
T1 sequence: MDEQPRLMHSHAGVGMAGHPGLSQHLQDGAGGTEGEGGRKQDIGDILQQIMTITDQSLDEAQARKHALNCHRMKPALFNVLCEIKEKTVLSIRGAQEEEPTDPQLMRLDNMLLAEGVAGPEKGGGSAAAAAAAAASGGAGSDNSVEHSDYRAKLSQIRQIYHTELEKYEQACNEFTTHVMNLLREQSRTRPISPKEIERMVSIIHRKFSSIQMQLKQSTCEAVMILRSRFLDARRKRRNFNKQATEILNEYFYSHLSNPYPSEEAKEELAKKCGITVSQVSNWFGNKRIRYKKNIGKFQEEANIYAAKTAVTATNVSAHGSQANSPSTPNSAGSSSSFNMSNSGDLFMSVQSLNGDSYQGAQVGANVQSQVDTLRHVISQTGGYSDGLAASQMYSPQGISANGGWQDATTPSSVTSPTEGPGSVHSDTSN
In words: EMSA; PBX1 alone. The conditions noted are these: tags: pSG5-derived vector, reticulocyte lysate; label: DIG. As for the experimental part: as §1, §2

The next data set has as its target HOXB3 (UniProt P14651 P14651:1-431). Nature of the data set: EMSA; HOX alone. As to conditions: tags: pSG5-derived vector, reticulocyte lysate; label: DIG. As for the experimental part:
as §1, §2

Another data set addresses HOXB1 (UniProt P14653 P14653:1-301). Nature of the data set: EMSA; HOX alone. As to conditions: tags: pSG5-derived vector, reticulocyte lysate; label: DIG. As for the experimental part:
as §1, §2

HOXC8 + PBX1, sequence (P31273 whole entry, one chain of several): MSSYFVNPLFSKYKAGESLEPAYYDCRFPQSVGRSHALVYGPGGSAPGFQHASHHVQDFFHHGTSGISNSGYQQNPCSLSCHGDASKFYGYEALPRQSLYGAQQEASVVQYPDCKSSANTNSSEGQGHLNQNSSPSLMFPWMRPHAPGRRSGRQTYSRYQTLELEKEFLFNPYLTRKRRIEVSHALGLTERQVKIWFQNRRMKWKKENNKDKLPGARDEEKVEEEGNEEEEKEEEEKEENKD
HOXB3, sequence (P14651 whole entry, one chain of several): as the sequence (P14651 whole entry, one chain of several) above
HOXB1, sequence (P14653 whole entry, one chain of several): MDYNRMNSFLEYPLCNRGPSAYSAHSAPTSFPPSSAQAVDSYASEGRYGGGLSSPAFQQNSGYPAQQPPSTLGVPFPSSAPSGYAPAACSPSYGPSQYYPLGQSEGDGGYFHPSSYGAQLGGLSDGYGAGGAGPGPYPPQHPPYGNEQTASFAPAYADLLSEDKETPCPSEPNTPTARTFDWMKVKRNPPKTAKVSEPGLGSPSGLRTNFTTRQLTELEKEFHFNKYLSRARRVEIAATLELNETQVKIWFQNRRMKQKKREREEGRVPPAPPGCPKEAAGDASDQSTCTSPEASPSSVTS
HOXB1 + PBX1, sequence (P14653 whole entry, one chain of several): as above

B1: Hb9 125 bp enhancer wild-type 40 bp probe (dsDNA)
DNA 1: GTACGTTAGCTGATGAATTGACAAAAACTAATCAGCTTTA
DNA 2: TAAAGCTGATTAGTTTTTGTCAATTCATCAGCTAACGTAC
As to B1, the binding result in the data set with HOXC8 + PBX1 is given as “no binding”; in the data set with HOXD9 + PBX1, “no binding”; in the data set with HOXB3 + PBX1 it was “binds”; with HOXB1 + PBX1, “binds”; in the data set with PBX1, “no binding”; with HOXB3 it was “no binding”. Further, the binding result in the data set with HOXB1 is “no binding”.
